Two molecules from patent US20260070986A1 (AFFIMED, published 2026) can be followed below.

Experiment [1] concerns the target T1, cynomolgus CD16 on transfected CHO cells (cAg_36) (cynomolgus, UniProt Q8SPW2 17-254).
T1 construct: whole, on cells; also called cyCD16
The experiment in a line: flow cytometry on cyCD16 CHO cells (cAg_36), one-site fit of MFI, Exp. 2. The procedure: (§1) After washing in FACS buffer, cells were incubated in 50 μL FACS buffer without antibodies or with titrated antibodies starting at a concentration of 1000 nM followed by elven 3-fold serial dilutions for 40-50 min on ice in the dark. After washing twice, cells were incubated with FITC-conjugated goat anti-human IgG (H+L) (Jackson Immunologies, cat.: 109-096-088) for 40-50 min on ice in the dark. […] After washing, binding was measured by flow cytometry and mean fluorescence intensities (MFI) of cell samples were calculated and corrected for background staining using control cells stained with secondary antibodies only.
(§2) Equilibrium dissociation constants (KD) of antibody binding were calculated by plotting MFI values and fitting a non-linear regression model for one-site binding to hyperbolic dose-response curves using GraphPad Prism.
On the technique in general: In flow cytometry, cells or beads pass a laser one at a time.

Experiment [2] addresses T1, cynomolgus CD16 on transfected CHO …. The experiment is described as follows: flow cytometry on cyCD16 CHO cells (cAg_36), one-site fit of MFI, Exp. 3. The procedure: (§3) After washing twice, cells were incubated with FITC-conjugated goat anti-human IgG (H+L) (Jackson Immunologies, cat.: 109-096-088) for 40-50 min on ice in the dark. […] After washing, binding was measured by flow cytometry and mean fluorescence intensities (MFI) of cell samples were calculated and corrected for background staining using control cells stained with secondary antibodies only.
as §2

Experiment [3] has the same target. The experiment is described as follows: flow cytometry on cyCD16-transfected CHO cells (cAg_36), anti-human IgG-FITC detection. The procedure: as §1
The target is the same in experiment [4]. The experiment in a line: flow cytometry on cyCD16 CHO cells (cAg_36), one-site fit of MFI, mean. The procedure: as §1, §2
Experiment [5] has as its target T2, human CD16A (158F) on transfected CHO cells (cAg_34) (human, UniProt P08637 17-254).
T2 construct: Exact cell-anchored construct not described; also called huCD16A
The experiment in a line: flow cytometry on huCD16A (158F)-transfected CHO cells (cAg_34), anti-human IgG-FITC detection. The procedure:
as §1

Experiment [6] has as its target T2, human CD16A (158F) on transfected CHO …. The experiment in a line: flow cytometry on huCD16A (158F) CHO cells (cAg_34), one-site fit of MFI, Exp. 2. The method, then: as §3, §2
Experiment [7] shares this target. The experiment is described as follows: flow cytometry on huCD16A (158F) CHO cells (cAg_34), one-site fit of MFI, mean. The procedure: as §3, §2
Experiment [8] has the same target. The experiment is described as follows: flow cytometry on huCD16A (158F) CHO cells (cAg_34), one-site fit of MFI, Exp. 1. The procedure:
as §3, §2

The target in experiment [9] is T1, cynomolgus CD16 on transfected CHO …. The experiment is described as follows: flow cytometry on cyCD16 CHO cells (cAg_36), one-site fit of MFI, Exp. 1. The procedure:
as §3, §2

In experiment [10] the target is T2, human CD16A (158F) on transfected CHO …. The experiment is described as follows: flow cytometry on huCD16A (158F) CHO cells (cAg_34), one-site fit of MFI, Exp. 3. The procedure: as §3, §2
Experiment [11] has the same target. The experiment in a line: flow cytometry on huCD16A-transfected CHO cells (cAg_34), one-site fit of MFI, experiment 2. The method, then:
as §1, with “100 μg/mL” for “1000 nM”, “ten 5-fold” for “elven 3-fold”, “30” for “40-50”, “APC-conjugated” for “FITC-conjugated”, “(H+L)-APC (Dianova, cat. 109-136-088)” for “(H+L) (Jackson Immunologies, cat.: 109-096-088)”
as §2

Experiment [12] concerns the target T3, recombinant human CD16A 158F, biotinylated mFc.silenced/Avi-tagged (human, UniProt P08637 17-208, biotinylated (Avi-tag)).
T3 construct: not shown: silenced mouse Fc (mFc.silenced) and Avi-tag
The experiment in a line: SPR (Biacore), 37 °C, multi-cycle kinetics, biotin-captured antigen as ligand, antibody construct as analyte, 1:1 binding model. The procedure: (§4) After each cycle, chip surfaces were regenerated with 6M guanidine-HCl, 0.25M NaOH and reloaded with Biotin Capture reagent. Interaction kinetics were determined by fitting data from multi-cycle kinetics experiments to a simple 1:1 interaction model using the local data analysis option (Rmax and RI) available within Biacore T200 Evaluation Software (v3.1). Referencing was done against a flow cell without captured ligand (Fc2-Fc1, Fc4-Fc3).
(§5) Affinity and kinetic parameters were evaluated for interaction with human CD16A and cynomolgus CD16 using a 1:1 Binding model.

In experiment [13] the target is T4, recombinant cynomolgus CD16, biotinylated mFc.silenced/Avi-tagged (cynomolgus, UniProt Q8SPW2 17-208, biotinylated (Avi-tag)).
T4 construct: not shown: silenced mouse Fc (mFc.silenced) and Avi-tag
Described as above. The method, then:
as §4, §5

The target of experiment [14] is T5, recombinant human CD16A 158V, biotinylated mFc.silenced/Avi-tagged (human, UniProt P08637 17-208, biotinylated (Avi-tag)).
T5 construct: not shown: silenced mouse Fc (mFc.silenced) and Avi-tag
The experiment is described as above. The procedure:
as §4, §5

In experiment [15] the target is T2, human CD16A (158F) on transfected CHO …. The experiment is described as follows: flow cytometry on huCD16A-transfected CHO cells, anti-human IgG-APC detection. The method, then:
To analyze binding of different antibody constructs to CHO cells transfected with human CD16A (cAg_34), relative to CD16 expression by flow cytometry, 1-2×10⁵ were resuspended in 100 μL FACS buffer (PBS (Invitrogen, cat.: 14190-169) containing 2% heat-inactivated FCS (Invitrogen, cat.: 10270-106), and 0.1% sodium azide (Roth, Karlsruhe, Germany, cat.: A1430.0100)) in round-bottom 96-well microtiter plates. After washing in FACS buffer, cells were incubated in 50 μL FACS buffer without antibodies or with titrated antibodies starting at a concentration of 100 μg/mL followed by ten 5-fold serial dilutions for 30 min on ice in the dark. After washing twice, cells were incubated with APC-conjugated goat anti-human IgG (H+L)-APC (Dianova, cat. 109-136-088) for 30 min on ice in the dark. […] After washing, binding was measured by flow cytometry and mean fluorescence intensities (MFI) of cell samples were calculated and corrected for background staining using control cells stained with secondary antibodies only.
as §2

For experiment [16] the target is unchanged. The experiment is described as follows: flow cytometry on huCD16A-transfected CHO cells (cAg_34), one-site fit of MFI, experiment 3. The procedure:
as §1, with “100 μg/mL” for “1000 nM”, “ten 5-fold” for “elven 3-fold”, “30” for “40-50”, “APC-conjugated” for “FITC-conjugated”, “(H+L)-APC (Dianova, cat. 109-136-088)” for “(H+L) (Jackson Immunologies, cat.: 109-096-088)”
as §2

Experiment [17] shares this target. The experiment is described as follows: flow cytometry on huCD16A-transfected CHO cells (cAg_34), one-site fit of MFI, experiment 1. The method, then: as §1, with “100 μg/mL” for “1000 nM”, “ten 5-fold” for “elven 3-fold”, “30” for “40-50”, “APC-conjugated” for “FITC-conjugated”, “(H+L)-APC (Dianova, cat. 109-136-088)” for “(H+L) (Jackson Immunologies, cat.: 109-096-088)”
as §2

Experiment [18] shares this target. The experiment is described as follows: flow cytometry on huCD16A-transfected CHO cells (cAg_34), one-site fit of MFI, mean of 3 experiments. The method, then:
as §1, with “100 μg/mL” for “1000 nM”, “ten 5-fold” for “elven 3-fold”, “30” for “40-50”, “APC-conjugated” for “FITC-conjugated”, “(H+L)-APC (Dianova, cat. 109-136-088)” for “(H+L) (Jackson Immunologies, cat.: 109-096-088)”
as §2

T5 sequence (P08637 17-208 F176V limits assumed): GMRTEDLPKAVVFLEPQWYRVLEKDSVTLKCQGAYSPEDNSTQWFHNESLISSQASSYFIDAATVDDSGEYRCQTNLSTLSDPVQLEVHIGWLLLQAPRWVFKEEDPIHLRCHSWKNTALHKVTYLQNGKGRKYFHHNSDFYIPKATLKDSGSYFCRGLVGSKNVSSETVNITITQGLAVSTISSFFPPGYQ
T2 sequence (P08637 17-254 limits assumed): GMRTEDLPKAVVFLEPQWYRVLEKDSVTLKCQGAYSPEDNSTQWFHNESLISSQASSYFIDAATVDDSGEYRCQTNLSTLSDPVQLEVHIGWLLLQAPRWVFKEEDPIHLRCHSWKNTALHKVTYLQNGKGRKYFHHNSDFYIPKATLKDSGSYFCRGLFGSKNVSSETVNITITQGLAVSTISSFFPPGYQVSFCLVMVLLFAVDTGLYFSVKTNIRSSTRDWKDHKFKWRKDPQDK
T1 sequence (Q8SPW2 17-254): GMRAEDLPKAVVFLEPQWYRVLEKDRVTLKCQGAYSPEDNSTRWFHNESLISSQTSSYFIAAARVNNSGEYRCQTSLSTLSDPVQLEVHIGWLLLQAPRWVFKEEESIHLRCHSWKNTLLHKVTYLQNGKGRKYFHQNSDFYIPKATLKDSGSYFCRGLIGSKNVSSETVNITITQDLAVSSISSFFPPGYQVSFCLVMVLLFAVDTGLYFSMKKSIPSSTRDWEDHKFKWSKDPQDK
T3 sequence (P08637 17-208): as the sequence (P08637 17-208 F176V limits assumed) above, with V160F counted along it
T4 sequence (Q8SPW2 17-208): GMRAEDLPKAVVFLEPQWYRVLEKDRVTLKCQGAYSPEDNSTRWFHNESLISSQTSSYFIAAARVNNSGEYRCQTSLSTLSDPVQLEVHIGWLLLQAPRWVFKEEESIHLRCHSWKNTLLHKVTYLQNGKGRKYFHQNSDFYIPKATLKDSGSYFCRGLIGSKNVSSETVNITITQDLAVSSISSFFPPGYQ

B1: scFv-IgAb_381 (Target specificity x CD16A, CD16a4) (bispecific antibody)
chain 1: EVQLVESGGGVVQPGRSLRLSCSASGFTFSGYGLSWVRQAPGKGLEWVAMISSGGSYTYYADSVKGRFAISRDNAKNTLFLQMDSLRPEDTGVYFCARHGDDPAWFAYWGQGTPVTVSSASTKGPSVFPLAPSSKSTSGGTAALGCLVKDYFPEPVTVSWNSGALTSGVHTFPAVLQSSGLYSLSSVVTVPSSSLGTQTYICNVNHKPSNTKVDKKVEPKSCDKTHTCPPCPAPEFEGGPSVFLFPPKPKDTLMISRTPEVTCVVVAVSHEDPEVKFNWYVDGVEVHNAKTKPREEQYNSTYRVVSVLTVLHQDWLNGKEYKCKVSNKALPAPIEKTISKAKGQPREPQVYTLPPSREEMTKNQVSLTCLVKGFYPSDIAVEWESNGQPENNYKTTPPVLDSDGSFFLYSKLTVDKSRWQQGNVFSCSVMHEALHNHYTQKSLSLSPGGGGGSGGGGSGGGGSGGGGSGGGGSGGGGSSYELTQPLSVSVALGQTARITCGGHNIGSKNVHWYQQKPGQAPVLVIYQDNKRPSGIPERFSGSNSGNTATLTISRAQAGDEADYYCQVWDNYNVLFGCGTKLTVLGGSGGSGGSGGSGGSGGSGGSQVQLVQSGAEVKKPGASVKVSCKASGYTFTSYYMHWVRQAPGQCLEWMGAIEPTYGSTSYAQKFQGRVTMTRDTSTSTVYMELSSLRSEDTAVYYCARGSAYYYDFADYWGQGTLVTVS
chain 2: DIQLTQSPSSLSASVGDRVTITCSVSSSISSNNLHWYQQKPGKAPKPWIYGTSNLASGVPSRFSGSGSGTDYTFTISSLQPEDIATYYCQQWSSYPYMYTFGQGTKVEIKRTVAAPSVFIFPPSDEQLKSGTASVVCLLNNFYPREAKVQWKVDNALQSGNSQESVTEQDSKDSTYSLSSTLTLSKADYEKHKVYACEVTHQGLSSPVTKSFNRGEC
In the case of B1, the dissociation constant Kd came to 31.7 nM in [1]; 28.2 nM in [2]; 32.8 nM in experiment [4]; 29.3 nM in experiment [6]; 26.2 nM in experiment [7]; 22.1 nM in experiment [8]. In addition, the Kd stood at 38.6 nM in experiment [9] and 27.1 nM in experiment [10]. Further, the “EC50 (read off the curve)” value is ~40 nM in [3] and ~30 nM in experiment [5].

B2: scFv-IgAb_148 (CD123-1xCD16a2) (bispecific antibody)
chain 1: QVQLQQSGAEVKKPGASVKVSCKASGYTFTDYYMKWVKQSHGKSLEWMGDIIPSNGATFYNQKFKGKATLTVDRSTSTAYMELSSLRSEDTAVYYCARSHLLRASWFAYWGQGTLVTVSSASTKGPSVFPLAPSSKSTSGGTAALGCLVKDYFPEPVTVSWNSGALTSGVHTFPAVLQSSGLYSLSSVVTVPSSSLGTQTYICNVNHKPSNTKVDKKVEPKSCDKTHTCPPCPAPEFEGGPSVFLFPPKPKDTLMISRTPEVTCVVVAVSHEDPEVKFNWYVDGVEVHNAKTKPREEQYNSTYRVVSVLTVLHQDWLNGKEYKCKVSNKALPAPIEKTISKAKGQPREPQVYTLPPSREEMTKNQVSLTCLVKGFYPSDIAVEWESNGQPENNYKTTPPVLDSDGSFFLYSKLTVDKSRWQQGNVFSCSVMHEALHNHYTQKSLSLSPGGGGGSGGGGSGGGGSGGGGSGGGGSGGGGSSYVLTQPSSVSVAPGQTATISCGGHNIGSKNVHWYQQRPGQSPVLVIYQDNKRPSGIPERFSGSNSGNTATLTISGTQAMDEADYYCQVWDNYSVLFGGGTKLTVLGGSGGSGGSGGSGGSGGSGGSQVQLVQSGAEVKKPGESLKVSCKASGYTFTSYYMHWVRQAPGQGLEWMGAIEPMYGSTSYAQKFQGRVTMTRDTSTSTVYMELSSLRSEDTAVYYCARGSAYYYDFADYWGQGTLVTVSS
chain 2: not shown
notes: also called CD123xCD16A scFv-IgAb_148; CD16a2xCD123-1
Regarding B2, the Kd in experiment [11] was found to be 18.7 nM; in experiment [12] it was 1.25 nM; in experiment [13], 2.48 nM; in experiment [14] it was 0.75 nM; in [16] it was 37.9 nM; in [17] it was 56.2 nM. The same molecule gave a Kd in experiment [18] of 37.6 nM. The results for the koff in experiment [12], in experiment [13] and in experiment [14] were 0.00037 s⁻¹, 0.00047 s⁻¹ and 0.00023 s⁻¹, respectively. Moreover, the kon in experiment [12] stood at 300000 M⁻¹ s⁻¹; in experiment [13], 190000 M⁻¹ s⁻¹; in [14], 310000 M⁻¹ s⁻¹. Moreover, the “EC50 (read off the curve)” value in experiment [15] is ~20 nM.

Broadly, the Kd is a measure of binding affinity in units of concentration. One may read the EC50 (read off the curve) as the concentration needed to bring the measured effect to its halfway point. Low values mean greater potency, high ones weaker potency. For orientation: koff means a measure of how fast the partners let go of each other. Usually kon stands for the second-order rate constant of association.
